Test results taken from IntAct's records for PubMed 12897212.

B1: Melanophilin (Homo sapiens), Q9BV36 (parent)
chain: MGKKLDLSKLTDEEAQHVLEVVQRDFDLRRKEEERLEALKGKIKKESSKRELLSDTAHLNETHCARCLQPYQLLVNSKRQCLECGLFTCKSCGRVHPEEQGWICDPCHLARVVKIGSLEWYYEHVKARFKRFGSAKVIRSLHGRLQGGAGPELISEERSGDSDQTDEDGEPGSEAQAQAQPFGSKKKRLLSVHDFDFEGDSDDSTQPQGHSLHLSSVPEARDSPQSLTDESCSEKAAPHKAEGLEEADTGASGCHSHPEEQPTSISPSRHGALAELCPPGGSHRMALGTAAALGSNVIRNEQLPLQYLADVDTSDEESIRAHVMASHHSKRRGRASSESQIFELNKHISAVECLLTYLENTVVPPLAKGLGAGVRTEADVEEEALRRKLEELTSNVSDQETSSEEEEAKDEKAEPNRDKSVGPLPQADPEVGTAAHQTNRQEKSPQDPGDPVQYNRTTDEELSELEDRVAVTASEVQQAESEVSDIESRIAALRAAGLTVKPSGKPRRKSNLPIFLPRVAGKLGKRPEDPNADPSSEAKAMAVPYLLRRKFSNSLKSQGKDDDSFDRKSVYRGSLTQRNPNARKGMASHTFAKPVVAHQS

Variants of: B1
Conditions: with rb27a_human RAB27A

Variant	effect of a mutation on the interaction
R35K	disrupting interaction
R35V	disrupting interaction
R35F	disrupting interaction

Variants of: B1
Conditions: with rb27a_human RAB27A
Remark: another data set of the same source

Variant	effect of a mutation on the interaction
R35W	disrupting interaction
